{
  "source": "patent US20240192215A1",
  "about": "(E AND S HEALTHCARE, published 2024)",
  "key": {"[1]": {"molecular_target": "T1, human thioredoxin-1 (Trx1) (human, UniProt P10599 1-105)", "T1 construct": "also called hTrx1; hTRX1", "T1 sequence (looked up)": "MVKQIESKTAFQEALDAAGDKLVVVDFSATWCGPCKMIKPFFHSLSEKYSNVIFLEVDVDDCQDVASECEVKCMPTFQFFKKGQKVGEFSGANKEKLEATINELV", "assay": "one site - total fit (Prism) of the ELISA of panel (a); the cell has no unit, the concentrations of panel (a) are in nM; paragraph 183 prints it rounded as 1.1x10^-11 [b]", "experimental": "100 μl of a coating buffer and 100 ng of Trx1 were mixed and dispensed to each well, and then reacted at 4° C. for 16 hours or more. After the reaction solution was removed, 200 μl of PBSA was dispensed to each well and reacted at 37° C. for 120 minutes. […] After the reaction solution was removed, washing was performed by dispensing 200 μl of a washing buffer to each well. The above-described process was performed two times.\nAfter the reaction solution was removed, washing was performed by dispensing 200 μl of a washing buffer to each well. The above-described process was performed three times."}, "[2]": {"molecular_target": "T2, Peptide_004 (human)", "T2 construct": "15-mer on microarray; not native form, recombinant insert region", "T2 peptide": "AADVHSQHHHHHHHH", "assay": "peptide microarray, head 0.08 ug (text 0.008 ug/mL)", "experimental": "(§1) 5, 1, 0.2, 0.04, 0.008 and 0.0016 μg/mL serial dilutions were incubated on a single multi-well microarray slide at 30° C. for 1 hour. The slide includes 21 individual mini-arrays (one mini-array per sample dilution).\n(§2) DyLight 650 was used as a label. False-positive binding to a peptide was evaluated by performing one additional control incubation in which only a secondary antibody was applied on the same microarray slide. Before performing each step, the microarrays were washed with a washing buffer."}, "[3]": {"molecular_target": "T3, Peptide_005 (human)", "T3 construct": "15-mer on microarray; not native form, recombinant insert region", "T3 peptide": "ADVHSQHHHHHHHHV", "assay": "peptide microarray, head 0.08 ug (text 0.008 ug/mL)", "experimental": "as §1, §2"}, "[4]": {"molecular_target": "T3, Peptide_005", "assay": "peptide microarray, anti-mouse IgG DyLight 650, MMC2 heatmap (Example 17)", "experimental": "as §1, §2\nTo visualize the obtained results and compare binding regions across individual cultures, as shown in FIGS. 21A to 21D, heatmap diagrams were calculated. In FIGS. 21A to 21D, the fluorescence intensity is expressed in a color-coded manner, white indicates no binding, and red indicates strong binding. For all evaluations, the MMC2-value of the average pixel fluorescence for each peptide was calculated."}, "[5]": {"molecular_target": "T4, Peptide_019 (human)", "T4 construct": "15-mer of hTrx1 on microarray", "T4 peptide": "VKQIESKTAFQEALD", "assay": "peptide microarray, head 0.08 ug (text 0.008 ug/mL)", "experimental": "as §1, §2"}, "[6]": {"molecular_target": "T5, Peptide_093 (human)", "T5 construct": "15-mer of hTrx1 on microarray", "T5 peptide": "TFQFFKKGQKVGEFS", "assay": "peptide microarray, head 0.08 ug (text 0.008 ug/mL)", "experimental": "as §1, §2"}, "[7]": {"molecular_target": "T6, Peptide_095 (human)", "T6 construct": "15-mer of hTrx1 on microarray", "T6 peptide": "QFFKKGQKVGEFSGA", "assay": "peptide microarray, head 0.08 ug (text 0.008 ug/mL)", "experimental": "as §1, §2"}, "[8]": {"molecular_target": "T7, Peptide_013 (human)", "T7 construct": "15-mer on microarray; not native form, includes recombinant insert region", "T7 peptide": "HHHHHHVKQIESKTA", "assay": "peptide microarray, head 0.08 ug (text 0.008 ug/mL)", "experimental": "as §1, §2"}, "[9]": {"molecular_target": "T8, Peptide_094 (human)", "T8 construct": "15-mer of hTrx1 on microarray", "T8 peptide": "FQFFKKGQKVGEFSG", "assay": "peptide microarray, head 0.08 ug (text 0.008 ug/mL)", "experimental": "as §1, §2"}, "[10]": {"molecular_target": "T9, Peptide_018 (human)", "T9 construct": "15-mer on microarray; not native form, includes recombinant insert region; also called HVKQIESKTAFQEAL", "T9 peptide": "HVKQIESKTAFQEAL", "assay": "peptide microarray, head 0.08 ug (text 0.008 ug/mL)", "experimental": "as §1, §2"}, "[11]": {"molecular_target": "T10, Peptide_024 (human)", "T10 construct": "15-mer of hTrx1 on microarray", "T10 peptide": "SKTAFQEALDAAGDK", "assay": "peptide microarray, head 0.08 ug (text 0.008 ug/mL)", "experimental": "as §1, §2"}, "[12]": {"molecular_target": "T11, Peptide_022 (human)", "T11 construct": "15-mer of hTrx1 on microarray", "T11 peptide": "IESKTAFQEALDAAG", "assay": "peptide microarray, head 0.08 ug (text 0.008 ug/mL)", "experimental": "as §1, §2"}, "[13]": {"molecular_target": "T12, Peptide_023 (human)", "T12 construct": "15-mer of hTrx1 on microarray", "T12 peptide": "ESKTAFQEALDAAGD", "assay": "peptide microarray, head 0.08 ug (text 0.008 ug/mL)", "experimental": "as §1, §2"}, "[14]": {"molecular_target": "T13, Peptide_085 (human)", "T13 construct": "15-mer of hTrx1 on microarray", "T13 peptide": "ECEVKCMPTFQFFKK", "assay": "peptide microarray, head 0.08 ug (text 0.008 ug/mL)", "experimental": "as §1, §2"}, "[15]": {"molecular_target": "T14, Peptide_084 (human)", "T14 construct": "15-mer of hTrx1 on microarray", "T14 peptide": "SECEVKCMPTFQFFK", "assay": "peptide microarray, head 0.08 ug (text 0.008 ug/mL)", "experimental": "as §1, §2"}, "[16]": {"molecular_target": "T15, Peptide_051 (human)", "T15 construct": "15-mer of hTrx1 on microarray", "T15 peptide": "PCKMIKPFFHSLSEK", "assay": "peptide microarray, head 0.08 ug (text 0.008 ug/mL)", "experimental": "as §1, §2"}, "[17]": {"molecular_target": "T16, Peptide_020 (human)", "T16 construct": "15-mer of hTrx1 on microarray", "T16 peptide": "KQIESKTAFQEALDA", "assay": "peptide microarray, head 0.08 ug (text 0.008 ug/mL)", "experimental": "as §1, §2"}, "[18]": {"molecular_target": "T17, Peptide_014 (human)", "T17 construct": "15-mer on microarray; not native form, includes recombinant insert region", "T17 peptide": "HHHHHVKQIESKTAF", "assay": "peptide microarray, head 0.08 ug (text 0.008 ug/mL)", "experimental": "as §1, §2"}, "[19]": {"molecular_target": "T18, Peptide_086 (human)", "T18 construct": "15-mer of hTrx1 on microarray", "T18 peptide": "CEVKCMPTFQFFKKG", "assay": "peptide microarray, head 0.08 ug (text 0.008 ug/mL)", "experimental": "as §1, §2"}, "[20]": {"molecular_target": "T19, Peptide_012 (human)", "T19 construct": "15-mer on microarray; not native form, includes recombinant insert region", "T19 peptide": "HHHHHHHVKQIESKT", "assay": "peptide microarray, head 0.08 ug (text 0.008 ug/mL)", "experimental": "as §1, §2"}, "[21]": {"molecular_target": "T20, Peptide_015 (human)", "T20 construct": "15-mer on microarray; not native form, includes recombinant insert region", "T20 peptide": "HHHHVKQIESKTAFQ", "assay": "peptide microarray, head 0.08 ug (text 0.008 ug/mL)", "experimental": "as §1, §2"}, "[22]": {"molecular_target": "T21, Peptide_045 (human)", "T21 construct": "15-mer of hTrx1 on microarray", "T21 peptide": "SATWCGPCKMIKPFF", "assay": "peptide microarray, head 0.08 ug (text 0.008 ug/mL)", "experimental": "as §1, §2"}, "[23]": {"molecular_target": "T22, Peptide_021 (human)", "T22 construct": "15-mer of hTrx1 on microarray", "T22 peptide": "QIESKTAFQEALDAA", "assay": "peptide microarray, head 0.08 ug (text 0.008 ug/mL)", "experimental": "as §1, §2"}, "[24]": {"molecular_target": "T23, Peptide_092 (human)", "T23 construct": "15-mer of hTrx1 on microarray", "T23 peptide": "PTFQFFKKGQKVGEF", "assay": "peptide microarray, head 0.08 ug (text 0.008 ug/mL)", "experimental": "as §1, §2"}, "[25]": {"molecular_target": "T24, Peptide_025 (human)", "T24 construct": "15-mer of hTrx1 on microarray", "T24 peptide": "KTAFQEALDAAGDKL", "assay": "peptide microarray, head 0.08 ug (text 0.008 ug/mL)", "experimental": "as §1, §2"}, "[26]": {"molecular_target": "T15, Peptide_051", "assay": "peptide microarray, 0.04 ug/mL", "experimental": "as §1, §2"}},
  "data": [
    {"binder": "monoclonal antibody B266-1 (antibody, human IgG1, B266 with the Fc part changed to human IgG1; also called B266-1 (Trx1-hIgG1); B266-1 (hTrx1-hIgG1)) light: QIVLTQSPAIMSASPGEKVTMTCSASSRISYMYWYQQKPGTSPKRWIYDTSKLASGVPARFSGSGSGTSYSLTISTMEAEDAATYYCHQRSSYPTFGAGTKLELKSVAAPSVFIFPPSDEQLKSGTASVVCLLNNFYPREAKVQWKVDNALQSGNSQESVTEQDSKDSTYSLSSTLTLSKADYEKHKVYACEVTHQGLSSPVTKSFNRGEC heavy: not shown", "values": [
      {"measurement": "Kd", "setting": "[1]", "result": 11.2, "unit": "pM"},
      {"measurement": "signal (blank-control = 1)", "setting": "[2]", "result": 1},
      {"measurement": "signal (blank-control = 1)", "setting": "[3]", "result": 1.28}
    ]},
    {"binder": "monoclonal antibody B264 (antibody, mouse IgG1, kappa, V domains shown, also called AB264; B264 (Trx1-mIgG1)) VH: QVQLQQSGAELARPGASVKMSCKASGYTFTSYTMHWVKQRPGQGLEWIGYINPTSDYTNYNQKFKDKATLTADKSSSTAYMQLSSLTSEDSAVYFCASEGGFLYYFDYWGQGTTLTVSS VL: DVLMTQTPLSLPVSLGDQASISCRSSQSIVHSNGNTYLEWYLQKPGQSPKLLIYKVSNRFSGVPDRFSGSGSGTDFTLKISRVEAEDLGVYYCFQGSHVPYTFGGGTKLEIKR", "values": [
      {"measurement": "binding result", "setting": "[4]", "result": "no binding (tested: 5 ug/mL)"},
      {"measurement": "signal (blank-control = 1)", "setting": "[5]", "result": 1.02},
      {"measurement": "signal (blank-control = 1)", "setting": "[6]", "result": 1.53},
      {"measurement": "signal (blank-control = 1)", "setting": "[7]", "result": 1.15},
      {"measurement": "signal (blank-control = 1)", "setting": "[8]", "result": 0.95},
      {"measurement": "signal (blank-control = 1)", "setting": "[9]", "result": 1},
      {"measurement": "signal (blank-control = 1)", "setting": "[10]", "result": 0.85},
      {"measurement": "signal (blank-control = 1)", "setting": "[11]", "result": 1},
      {"measurement": "signal (blank-control = 1)", "setting": "[12]", "result": 1},
      {"measurement": "signal (blank-control = 1)", "setting": "[13]", "result": 0.91},
      {"measurement": "signal (blank-control = 1)", "setting": "[14]", "result": 0.9},
      {"measurement": "signal (blank-control = 1)", "setting": "[15]", "result": 1.33},
      {"measurement": "signal (blank-control = 1)", "setting": "[16]", "result": 0.7},
      {"measurement": "signal (blank-control = 1)", "setting": "[17]", "result": 0.8},
      {"measurement": "signal (blank-control = 1)", "setting": "[18]", "result": 1.14},
      {"measurement": "signal (blank-control = 1)", "setting": "[19]", "result": 1.02},
      {"measurement": "signal (blank-control = 1)", "setting": "[20]", "result": 0.88},
      {"measurement": "signal (blank-control = 1)", "setting": "[21]", "result": 0.79},
      {"measurement": "signal (blank-control = 1)", "setting": "[22]", "result": 5.89},
      {"measurement": "signal (blank-control = 1)", "setting": "[23]", "result": 0.84},
      {"measurement": "signal (blank-control = 1)", "setting": "[24]", "result": 3.07},
      {"measurement": "signal (blank-control = 1)", "setting": "[25]", "result": 1.03},
      {"measurement": "signal (blank-control = 1)", "setting": "[26]", "result": 1.41}
    ]}
  ]
}
